Laboratory results reported in paper PMC9482650, “Quantitative fragmentomics allow affinity mapping of interactomes” (Nature Communications, 2022).

Key:
Experiment in all cases: holdup assay
Design in all cases: key: below the threshold = too weak to quantify, mostly under pKd 3.1 to 4
[1] = target: T1, APBA3_1, O96018
T1 sequence (O96018 389-490, limits assumed, looked up): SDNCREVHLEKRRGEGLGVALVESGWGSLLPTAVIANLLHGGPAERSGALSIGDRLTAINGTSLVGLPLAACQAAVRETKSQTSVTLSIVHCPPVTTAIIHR

[2] = target: T2, ARHGEF11, O15085
T2 sequence (O15085 42-136, limits assumed, looked up): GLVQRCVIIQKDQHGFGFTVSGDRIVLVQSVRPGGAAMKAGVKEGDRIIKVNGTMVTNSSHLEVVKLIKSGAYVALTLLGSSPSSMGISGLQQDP

[3] = target: T3, DFNB31_1, Q9P202
T3 sequence (Q9P202 135-233, limits assumed, looked up): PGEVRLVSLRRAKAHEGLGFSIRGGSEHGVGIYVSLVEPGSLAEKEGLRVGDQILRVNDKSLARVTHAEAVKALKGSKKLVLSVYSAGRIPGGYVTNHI

[4] = target: T4, DLG3_1, Q92796
T4 sequence (Q92796 125-227, limits assumed, looked up): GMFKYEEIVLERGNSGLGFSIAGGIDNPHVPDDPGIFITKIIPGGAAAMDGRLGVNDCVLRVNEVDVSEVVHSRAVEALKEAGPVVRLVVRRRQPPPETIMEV

[5] = target: DLG4_2, P78352
Chain of DLG4_2, P78352 (P78352 155-259): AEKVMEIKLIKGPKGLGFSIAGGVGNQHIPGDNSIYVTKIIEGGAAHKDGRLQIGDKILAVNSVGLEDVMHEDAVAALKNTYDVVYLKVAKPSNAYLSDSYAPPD

[6] = target: FRMPD3, Q5JV73
Chain of FRMPD3, Q5JV73 (Q5JV73 12-100): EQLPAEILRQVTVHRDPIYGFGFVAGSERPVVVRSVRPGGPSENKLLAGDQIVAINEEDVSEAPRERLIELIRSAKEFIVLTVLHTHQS

[7] = target: GRID2IP_2, A4D2P6
Chain of GRID2IP_2, A4D2P6 (A4D2P6 272-370): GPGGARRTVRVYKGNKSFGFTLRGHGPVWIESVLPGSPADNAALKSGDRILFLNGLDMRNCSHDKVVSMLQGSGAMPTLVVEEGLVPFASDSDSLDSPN

[8] = target: T5, GRIP1_4, Q9Y3R0
T5 sequence (Q9Y3R0 467-571, limits assumed, looked up): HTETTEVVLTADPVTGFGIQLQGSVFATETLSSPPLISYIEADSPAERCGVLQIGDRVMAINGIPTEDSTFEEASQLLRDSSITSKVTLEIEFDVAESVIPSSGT

[9] = target: GRIP2_4, Q9C0E4
Chain of GRIP2_4, Q9C0E4 (Q9C0E4 446-548): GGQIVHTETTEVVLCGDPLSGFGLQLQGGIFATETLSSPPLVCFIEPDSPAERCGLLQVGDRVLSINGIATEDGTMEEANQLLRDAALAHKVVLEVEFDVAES

[10] = target: GRIP2_6, Q9C0E4
Chain of GRIP2_6, Q9C0E4 (Q9C0E4 648-740): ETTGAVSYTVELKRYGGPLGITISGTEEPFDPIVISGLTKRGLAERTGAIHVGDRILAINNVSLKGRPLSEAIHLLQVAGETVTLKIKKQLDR

[11] = target: T6, HTRA3, P83110
T6 sequence (P83110 354-453, limits assumed, looked up): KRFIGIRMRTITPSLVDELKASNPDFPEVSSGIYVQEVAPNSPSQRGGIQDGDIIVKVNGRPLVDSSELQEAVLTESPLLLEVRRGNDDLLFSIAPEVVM

[12] = target: IL16_1, Q14005
Chain of IL16_1, Q14005 (Q14005 210-306): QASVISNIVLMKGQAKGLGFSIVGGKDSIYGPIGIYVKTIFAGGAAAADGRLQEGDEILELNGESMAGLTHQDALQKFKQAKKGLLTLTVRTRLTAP

[13] = target: IL16_4, Q14005
Chain of IL16_4, Q14005 (Q14005 1229-1329): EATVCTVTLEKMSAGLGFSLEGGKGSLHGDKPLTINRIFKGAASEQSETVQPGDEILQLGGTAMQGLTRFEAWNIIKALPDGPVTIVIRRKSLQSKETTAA

[14] = target: LNX1_2, Q8TBB1
Chain of LNX1_2, Q8TBB1 (Q8TBB1 371-470): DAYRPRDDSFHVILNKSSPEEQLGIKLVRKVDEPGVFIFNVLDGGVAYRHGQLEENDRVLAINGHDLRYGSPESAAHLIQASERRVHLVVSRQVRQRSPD

[15] = target: T7, LNX2_3, Q8N448
T7 sequence (Q8N448 463-564, limits assumed, looked up): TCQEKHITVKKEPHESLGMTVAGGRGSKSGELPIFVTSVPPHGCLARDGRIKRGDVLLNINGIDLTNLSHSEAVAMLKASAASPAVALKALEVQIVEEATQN

[16] = target: T8, LRRC7, Q96NW7
T8 sequence (Q96NW7 1440-1537, limits assumed, looked up): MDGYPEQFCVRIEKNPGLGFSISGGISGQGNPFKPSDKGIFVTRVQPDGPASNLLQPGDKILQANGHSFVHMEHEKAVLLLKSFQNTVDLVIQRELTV

[17] = target: MAGI1_1, Q96QZ7
Chain of MAGI1_1, Q96QZ7 (Q96QZ7 1-106): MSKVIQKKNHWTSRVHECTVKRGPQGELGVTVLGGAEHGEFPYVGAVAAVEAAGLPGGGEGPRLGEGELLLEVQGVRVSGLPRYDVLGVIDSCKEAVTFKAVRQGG

[18] = target: MAGI3_2, Q5TCQ9
Chain of MAGI3_2, Q5TCQ9 (Q5TCQ9 398-503): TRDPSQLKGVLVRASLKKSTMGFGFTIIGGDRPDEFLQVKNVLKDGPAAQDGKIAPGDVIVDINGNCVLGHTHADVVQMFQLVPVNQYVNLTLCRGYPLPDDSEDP

[19] = target: MAST2, Q6P0Q8
Chain of MAST2, Q6P0Q8 (Q6P0Q8 1099-1202): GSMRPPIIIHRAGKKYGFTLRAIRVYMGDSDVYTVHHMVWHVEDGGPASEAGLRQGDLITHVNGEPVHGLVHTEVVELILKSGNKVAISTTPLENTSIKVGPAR

[20] = target: NHERF4_4, Q86UT5
Chain of NHERF4_4, Q86UT5 (Q86UT5 464-550): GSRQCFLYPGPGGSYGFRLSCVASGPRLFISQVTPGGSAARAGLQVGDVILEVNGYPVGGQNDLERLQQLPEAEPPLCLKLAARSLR

[21] = target: PARD3_3, Q8TEW0
Chain of PARD3_3, Q8TEW0 (Q8TEW0 582-685): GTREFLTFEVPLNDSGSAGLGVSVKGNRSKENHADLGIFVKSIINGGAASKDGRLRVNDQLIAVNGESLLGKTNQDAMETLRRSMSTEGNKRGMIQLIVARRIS

[22] = target: T9, PDZD2_2, O15018
T9 sequence (O15018 329-429, limits assumed, looked up): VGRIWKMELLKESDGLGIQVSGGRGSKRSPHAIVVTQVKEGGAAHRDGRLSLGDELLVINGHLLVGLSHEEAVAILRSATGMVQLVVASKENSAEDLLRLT

[23] = target: PTPN3, P26045
Chain of PTPN3, P26045 (P26045 505-587): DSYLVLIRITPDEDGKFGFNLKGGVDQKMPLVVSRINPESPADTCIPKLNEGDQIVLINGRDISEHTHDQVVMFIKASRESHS

[24] = target: SCRIB_1, Q14160
Chain of SCRIB_1, Q14160 (Q14160 718-814): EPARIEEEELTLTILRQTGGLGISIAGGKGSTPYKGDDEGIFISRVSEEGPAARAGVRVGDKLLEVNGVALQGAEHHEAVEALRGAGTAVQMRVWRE

[25] = target: SNX27, Q96L92
[26] = target: T10, SYNJ2BP, P57105
T10 sequence (P57105 8-110, limits assumed, looked up): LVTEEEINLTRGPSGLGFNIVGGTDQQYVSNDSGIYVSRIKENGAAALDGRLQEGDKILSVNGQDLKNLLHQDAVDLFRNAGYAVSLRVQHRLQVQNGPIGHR

[27] = target: TJP2_1, Q9UDY2
Chain of TJP2_1, Q9UDY2 (Q9UDY2 24-128): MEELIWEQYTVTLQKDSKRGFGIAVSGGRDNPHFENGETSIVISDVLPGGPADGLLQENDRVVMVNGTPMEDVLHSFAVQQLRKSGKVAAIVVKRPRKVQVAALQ

[28] = plain residues with an end cap or a label only (N-terminal biotin on a linker: ttds)
[29] = plain residues with an end cap or a label only (N-terminal biotin on a linker: ado-ado)

LDSQIQETSI [MAP4, P27816]
pKd [1, 28]: below the threshold
pKd [2, 28]: below the threshold
pKd [3, 28]: 5.03
pKd [4, 28]: below the threshold
pKd [5, 28]: 4.18
pKd [6, 28]: below the threshold
pKd [7, 28]: 4.29
pKd [8, 28]: below the threshold
pKd [9, 28]: below the threshold
pKd [10, 28]: below the threshold
pKd [11, 28]: below the threshold
pKd [12, 28]: 3.49
pKd [13, 28]: below the threshold
pKd [14, 28]: below the threshold
pKd [15, 28]: below the threshold
pKd [16, 28]: below the threshold
pKd [17, 28]: below the threshold
pKd [18, 28]: 3.57
pKd [19, 28]: 5.97
pKd [20, 28]: below the threshold
pKd [21, 28]: 3.86
pKd [22, 28]: 4.36
pKd [23, 28]: 4.92
pKd [24, 28]: 5.56
pKd [25, 28]: 5.73
pKd [26, 28]: 4.95
pKd [27, 28]: below the threshold

GFGEERESIL [KIDINS220, Q9ULH0]
pKd [1, 29]: below the threshold
pKd [2, 29]: 3.8
pKd [3, 29]: below the threshold
pKd [4, 29]: below the threshold
pKd [5, 29]: 3.5
pKd [6, 29]: below the threshold
pKd [7, 29]: 3.86
pKd [8, 29]: below the threshold
pKd [9, 29]: below the threshold
pKd [10, 29]: below the threshold
pKd [11, 29]: below the threshold
pKd [12, 29]: 4.48
pKd [13, 29]: 3.74
pKd [14, 29]: below the threshold
pKd [15, 29]: below the threshold
pKd [16, 29]: below the threshold
pKd [17, 29]: below the threshold
pKd [18, 29]: below the threshold
pKd [19, 29]: 5.32
pKd [20, 29]: below the threshold
pKd [21, 29]: 4.35
pKd [22, 29]: 4.65
pKd [23, 29]: 5.22
pKd [24, 29]: below the threshold
pKd [25, 29]: 5.59
pKd [26, 29]: 3.95
pKd [27, 29]: below the threshold

VNKVWDQSSV [CIT, O14578]
pKd [1, 28]: below the threshold
pKd [2, 28]: below the threshold
pKd [3, 28]: 3.52
pKd [4, 28]: below the threshold
pKd [5, 28]: below the threshold
pKd [6, 28]: below the threshold
pKd [7, 28]: 3.74
pKd [8, 28]: below the threshold
pKd [9, 28]: below the threshold
pKd [10, 28]: below the threshold
pKd [11, 28]: below the threshold
pKd [12, 28]: 3.68
pKd [13, 28]: below the threshold
pKd [14, 28]: below the threshold
pKd [15, 28]: below the threshold
pKd [16, 28]: below the threshold
pKd [17, 28]: below the threshold
pKd [18, 28]: below the threshold
pKd [19, 28]: 5.14
pKd [20, 28]: below the threshold
pKd [21, 28]: below the threshold
pKd [22, 28]: 4.86
pKd [23, 28]: 3.78
pKd [24, 28]: 5.04
pKd [25, 28]: 5.11
pKd [26, 28]: 4.65
pKd [27, 28]: below the threshold

PKRPFVESNV [TANC2, Q9HCD6]
pKd [1, 28]: below the threshold
pKd [2, 28]: below the threshold
pKd [3, 28]: below the threshold
pKd [4, 28]: 3.82
pKd [5, 28]: 4.6
pKd [6, 28]: below the threshold
pKd [7, 28]: below the threshold
pKd [8, 28]: below the threshold
pKd [9, 28]: below the threshold
pKd [10, 28]: below the threshold
pKd [11, 28]: below the threshold
pKd [12, 28]: 4.66
pKd [13, 28]: below the threshold
pKd [14, 28]: below the threshold
pKd [15, 28]: below the threshold
pKd [16, 28]: 4.05
pKd [17, 28]: below the threshold
pKd [18, 28]: 4.55
pKd [19, 28]: 4.84
pKd [20, 28]: below the threshold
pKd [21, 28]: below the threshold
pKd [22, 28]: 4.52
pKd [23, 28]: 4.34
pKd [24, 28]: 4.75
pKd [25, 28]: 4.8
pKd [26, 28]: 5.08
pKd [27, 28]: below the threshold
